The values that follow come from paper PMC8669613 (Cell reports, 2021).

The target in experiment [1] is T1, GST-SdhA-CBM2 (1029-1260aa) (Legionella pneumophila, UniProt Q6RCQ3 1029-1260). Kind of experiment: pull-down.
For experiment [2], the target named is T1, GST-SdhA-CBM2 (1029-1260aa). Kind of experiment: ELISA. For orientation: ELISA stands for enzyme-linked immunosorbent assay.

B1: GFP-tagged, full-length OCRL (natural protein)
chain: not shown
As for B1, the “fold pull-down above the GST control” value in experiment [1] was about 47 fold.

B2: His-tagged ASH/RhoGAP domain of OCRL (536aa-901aa) (domain or fragment)
chain: not shown
Take B2: the binding result in experiment [2] was “binds”.

B3: His-tagged ASH domain of OCRL (536aa-678aa) (domain or fragment)
chain: not shown
As for B3, the binding result in experiment [2] is recorded as “binds”.
